Reference: publication PMC6996891

Target: attachment invasion locus (Ail) protein, wild type (Yersinia pestis)
Assay: native gel or EMSA

Substance: attachment invasion locus (Ail) protein, wild type (natural protein)
- percent oligomers: 20%
